# Data from the nanobody polyreactivity screen of Harvey et al. (2022).
# Assay: yeast display, Sf9 membrane polyspecificity reagent, FACS + sequencing; frameworks hold sequencing errors
# How it was run: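 Using colony PCR, genes from sorted yeast display clones were amplified, then sequenced on MiSeq at 2 × 250 and filtered by CDR length. The clones had been stained with 10% biotinylated, detergent-solubilized Sf9 membrane reagent for 1 hour at 4 °C and sorted by FACS into low and high (top ~1%) gates on anti-HA and streptavidin fluorescence. Polyreactivity labels come from the gate of origin.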
row,Sequence,polyreactivity (PSR sort gate)
1,QVQLVESGGGLVQAGGSLRLSCAASGSNFGRYAMGWYRQAPGKESELVAAINDDSGRTYYADTVKGRFTISRDNAKNTVYLQMNSLKPEDTAVYYCAAYRISQGYSTYNYWGQGTQVTVSS,high polyreactivity
2,QVQLVESGGGLVQAGGSLRLSSAASGITFKAYAMGWYRHAPGKERELVAAISGSGGATYYADSVEGRFTISRDNEKNTVYLQMISLKPEVTAVYYCAARAVSLTGYRFGYWGQGTQVTVSS,high polyreactivity
3,QVQLVESGGGLVQAGGSLRLSCAASGFIFSGNAMGWYRQAPGKERELVARIRSGDRTYYADSVKGRFTISRDNAKNTVYLQMNSLKPEDTAVYYCAAYAWYDWRSYFPILGYEYWGQGTQVTVSS,low polyreactivity
4,QVQLEESGGGLVQAGGSLRLSCAASGSTFGKNAMGWYRQAPGKERELVASITWRGGSTYYADSVKGRFTISRDNAKNTVYLQMNSLKPEDTAVYYCAADYVVSAFDYWGQGTQVTVSS,low polyreactivity
5,QVQLVESGGGLVQAGGSLRLSCAASGSTFGGYVMGWYRQAPGKERELVAAISGNGASTTYADSVKGRFTISRDNAKNTVYLQMNSLKPEDTAVYYCDALYRKAHSDYDYWGQGTQVTVSS,low polyreactivity
6,QVQLVESGRGLVQAGRSLRLSCAASGFIFETYPMGWYRQAPGKVRELVAAISRGASTYYADSVKGRFTISRDNAKNTVYLQMNSLTPEDTAVYNCAAQQGISYGTGVSATNPMDYWGQGTHVTVSS,low polyreactivity
7,QVQLVESGGGLLQAGGSLRLSCAASGRIFTLYDMGWYRQAPGKERELDAAISNSAGSTYYADSVKGRFTISLDNAKNTVYLQMNSLKTEDTAGYYCARSFSYWGYRSVYYWGQGTQVTVSS,high polyreactivity
8,QVQLVESGGGLVQAGGSLRLSCAASGSTFCYSVMGWYRQEPRTEREFVAAISTRGDSTYYADSVKGRFTLSRDNAKNTVYLQMNSLKPEDTAVYYCAKSRQSCGRVRLDYWGQGTQVTVSS,low polyreactivity
9,QVQLVESGGGLVQAGGSLRISCAASGSTFFYYSMGWYRQAPGKEWEFVAHITSSDASTHYADSVKGRFTISRDNAKNTVNLQMNSQQPEDTAVYYCAADRYCGQANYYWGQGTQVTVSS,low polyreactivity
10,QVQLVESGGGLVQAGGSLRLSCAASGHIFFVNAMGWYRQAPGKERELVAAINSVGSTYYADSVKGRFTISRDNAKNTVYLQMNSLKPEDTAVYYCAADSVYSQRHSWAYEDDYWGQGTQVTVSS,low polyreactivity
11,QDQLVESGGGLVQAGGSLRLSCAASGYTFPSYAMGWYRQAPGKEREFVAAIDSSGGSTNYADSVKGRFTISRDNAKNTVYLQMNSLKPEETAVYYCAREYSSGYWVRHLFYYWGQGTKVTVSS,low polyreactivity
12,QVQLVESGVGLVQAGGSLRLSCAASGRIFHINAMGWYRQAPGKERELVATISGTDRTTYADSVKGRFTISRDNAKNTVYLQMNSLKPEDTAVYYCAAPTDFLFWEFDYWGQGTQVTVSS,low polyreactivity
13,QVQLVDSGGGLVQAGGSLRLICPASGSIFSTYAMGWYRQAPGKERELLAAINRGTSTNYADSVKGRFTISRDNAKNTVYLQMNCLKPEDTAVYYCAAYYRGRYGPRRSEYWGQGTQVTVSS,high polyreactivity
14,QVQLVESGGGLVQAGGSLRLSCAASGFIFYYNARGWYRQAPGKERELVAGISWDGSTYYADSVKGRFTISRDNAKNTVYLQMNSLKPEDTAVYYCAAALLDDYFDLFIFGYWGQGTQVTVSS,low polyreactivity
15,QVQLVESGGGLVQAGGSLRLSCAASGSTSVKYAMGWYRQAPGKERELVAAIRKRGDSTYYADSVKGRFTISRDNAKNTVYLQMNSLKPEDTAVYYCAAQYLRGRGYWGQGTQVTVSS,low polyreactivity
16,QVQLVESGGGLVQAGGSLRLSCAASGYTYPYYTMGWYRQAPGKERELVAAISSGGRTKYADSVKGRFTISRDNAKNTVYLQMNSLKPEDTAVYYCAKSGNYRTGRFDYWGQGTQVTVSS,high polyreactivity
17,QVQHVESGGGLVQAGGSLRLSCAASGRIFTYYTMGWYRPAPGKEREFVAAISWSGTSTYYADSVKGRFRISRDNAKNTVYLQMKSLKPEDTAVYSCAARNWYSRYDYWGQGTQVTVSS,high polyreactivity
18,QFQLVESGGGLVQAGGSLRLSCAASGSIFRENAMGWYRQAPGKEMELVAAIYVRDGDTFYADSVKGRFTISRDNAKNTVYLQMNSLKPEDTAVYYCAADQQKWYTGYDYWGQCTQVTVSS,low polyreactivity
19,QVQLVESGGGLVQAGGSLRLSCAASGSTFDTYAMGWYRQAPGKERELVAAISYSGASTYYADSVKGRFTISRDNAKNTVYLQMNSLKPEDTAVYYCSADGGYYWLYDYWGQGTQVTVSS,low polyreactivity
20,QVQLVDSGGGLVQAGGSLRLSCAASGIIFHFNDLGLYIQAPGKERELVAAIDSTGSTNYSDSVKGRYTISRDNAKITVYLQLNRVKPEDTAVYNCAVLNHRVDAVLTRYYYWGQGTKVTVSS,low polyreactivity
21,QVQLVESGGGLVQAGGILRLSCAASGLIFTYYAMGWYRQAPWKERELLAAINYSGGSTYYADSVKGRFTISRDNAKNTVYLQMNSLKPEDTAVYYCNAGYGEHPLSGYEYWGQSTQVTVSS,low polyreactivity
22,QVQLVESGGGLVQAGGSLRLSCASSGLIFVVYAMGWYRQAPGKERELVAAISTSGDRTYYADSVKGRFTISRDNAKNTVYLLMNSLKPEDTAVYYCAAGRRKVPYCREYYYWGQVTQVTVSS,high polyreactivity

row,Sequence,polyreactivity (PSR sort gate)
1,QVQLVESGGGLVQAGGSLRLSCAASGSTFKRYAMGWYRQAPGKERELVADISRGVRTYYADSVKGRFTISRDNAKNTVYLQMNSLKPEDTAVYYCATKYHRNTYEYEYWGQGTQVTVSS,high polyreactivity
2,QGQLVESGGGLVQAGGSLRLSCAASGFTFAPNAMAWYRQAPGKERELVAAISSASSTYYADSLKGRFTISRDNAKNTVYLQMNSLKPEDTAVYYCAAREGWGFYYWGQGTQVTVSS,high polyreactivity
3,QVQLVESGGGLVQAGGSLRLSCAASGSIFRYYAMGWYRQAPGKERELVASITRRGGSTYYADSVKGRFTISRDNAKNTVYLQMTSLKPEDTAVYYCAAHKTYVRDYYWGQGTQVTVSS,high polyreactivity
4,QVQLVESGGGLVQAGGSLRLSCAASGRIFYSNTMGWNRQAPGKEREMVATITSGGSTNYADSVKGRFTISRDNAKNTVYFQMNILKPEDTAVYYCAADAYATHPFRSESDYWGQGTQVTVSS,low polyreactivity
5,QVQLVESGGGLVQAGGCLRLSCAASGSTFPIYDMGWYRQAPGKERELVAAITYSGGSTNYADSVKRRFTNSRDNAKTSVYFQMNSLKPDDTAVYYCAARYTAYIQSGMGYWGQGSQVTVSS,high polyreactivity
6,QVQHVESGGGLVQAGGSLRLSCAASGRTVYGYTMGWDRQAPGKERELVAAISYSGDSTYYADSVKGRFTISRDTAKNTVYFPMNSLKPEYTAVYYCAVRRYARFNYHYWGQGPQVTVSS,high polyreactivity
7,QVQLVESAGGLVQAGGSLRLSCGASGRIYSLYAMGWYRQAPGKERELVAAISWGAGSTYYADSVKGRFTISRDNAKNTVYLQMNSLKREDTAVYYCATGRRYYYPYSSYLKYGYWGQGTQVTVSS,high polyreactivity
8,QVQLVESGGGLVQAGGSLRLSCAASGSTFDSNVMGWYRQAPGKERELVAAINYSGVRTYYADSVKGRFTISRDNAKNTVYLQMNSLKPEDTAVYYCNARLFSYRYPEGGYWGQGTQVTVSS,high polyreactivity
9,QVQLVESGGGLVQSGGSLRLSCCACGRIFYSYSMGRYRQAPGKDRELVAANTCRGGSTYYADSVKGRFTISRDNAKNPVYLQMIRLKPEDTAVSYCATSSHTPYYSYIVERIHYDYWGQGTQVTVSS,high polyreactivity
10,QDQHVESVGGLVQAGGGLPLSCAASGRTFTYNAMGWYRQPPGKERELVAAITSGGTTNYADSVKGRFTISRDNAKNTVYLQMNSLKQEDTAVYYCAARRVYYSYRRYYYWGQGTQVTVSS,low polyreactivity
11,QVQLVESGGGLVQAGGSLRLSCGASGSTSKYYAMGWYRQAPGKERELVAAITWSDVSTYFADSVKGRFTISRDNAKHNVYLQMNSLKPEDTAVYYCNAGYDYWGQGTQVTVSS,low polyreactivity
12,QVQLVESGGGLVQAGGSLRLSCAASGIIFRGYFMGWYRQATGKERELVAAISTSGGRTSYADSVKGRFTISRDNAKNTVYLQMNSLKPEDTAVYYCAARPLYSYSHWGYGYWGQGTQVTVSS,high polyreactivity
13,QVQLVESGGGLVQAGGSLRLSCAASGYTFDWYTMGWYRQAPGKERELVAAISASGVRTYYADSVKGRFTISRDNAKNTVYLQMNSLKPEDTAVYYCNRVYSTSRITQYEFDYWGQGTQVTVSS,low polyreactivity
14,QVQLVESGGGLVQAGGSLRLSCAASGSIFYENAMGWYRQAPGKERELVAAISRSGGSTYYADSVKGRFTISRDNAKNTVSLQMNSLKPEDTAVYYCAADVYVFIGDYWGQGTQVTVSS,low polyreactivity
15,QDLLVESGGGLVQAGGSLRLSCAASGRTFWDYTMGWYRQAPGKDRELVASITRTCRTNYADSVKGRFTISRDNAKNTVYLQMNSLKTEDTAVYYCAAEVGYQGWYPSGYKFDYWGQGTQVTVSS,high polyreactivity
16,QFQLVESGGGLVQAGGSLRLSCAASGYTFGQYDMGWYRQAPGKERELVAAISTGGVSTYYADSVKGRFTISRDNAKNTVYLQMNSLKPEDTAVYYCATTPYVRYDYWGQGTQVTVSS,low polyreactivity
17,QVQLVESGRGLVQAGGSLRLSCAASGSIFGAYVMGWYRQAPGKERELVAAITRRGGSTYYADSVKGRFTISRDNAKNTVYLQMNSLKPEDTAVYYCAARRGAGDGYWGQGTQVNVSS,high polyreactivity
18,QVQLVESCGGLVQAGGSLRISCAASGRIFRPYAMGWYRQAPGPEREFVAAITSGSNTYYADSVKWRFTISRDNAKNTVYLQMNSLKPEDTAFYYCAAVQRKRAPAETAYGYWGQGPQVTVSS,high polyreactivity
19,QVQLVESGGGLVQAGGSLRLSCAASGRTFAWYAMGWYIEAPGKERELVAAISSGGSTYYADSVKGRFTISRDNAKNTVYLQMNSLKPEDTAVYYCATRYAIAGWVGYYYWGQCTQVTVSS,low polyreactivity
20,QVHLVESGGGLVQAGGSLRLSCDASGSIFNTYAMGWYRQAPGKESELVATITSGDRTYYADSVNGRFTISRDNAKNSVYLQMNSLNPEDTAVYYCAKRHWFQYRRPDLGRFDYWGQGTQVTVSS,high polyreactivity
21,QVQLVESGGRLVQAGGSLRLSCAASGRTFPVYAMGWYRQAPGKERELVAAISWSGGSTYYADSVKGRFTISRDNAKNTVYLQMNSLKPEDTAVYYCAKAYHLGLGYRFDYWGQGTQVTVSS,high polyreactivity
